The text below walks through data of publication PMC5768801, “The PII signaling protein from red algae represents an evolutionary link between cyanobacterial and Chloroplastida PII proteins” (Scientific Reports, 2018).

Assay [1] has as its target T1, N-acetyl-L-glutamate kinase from Synechocystis sp. PCC 6803 with an N-terminal His6 tag (Synechocystis sp. PCC 6803) (UniProt P73326).
T1 sequence: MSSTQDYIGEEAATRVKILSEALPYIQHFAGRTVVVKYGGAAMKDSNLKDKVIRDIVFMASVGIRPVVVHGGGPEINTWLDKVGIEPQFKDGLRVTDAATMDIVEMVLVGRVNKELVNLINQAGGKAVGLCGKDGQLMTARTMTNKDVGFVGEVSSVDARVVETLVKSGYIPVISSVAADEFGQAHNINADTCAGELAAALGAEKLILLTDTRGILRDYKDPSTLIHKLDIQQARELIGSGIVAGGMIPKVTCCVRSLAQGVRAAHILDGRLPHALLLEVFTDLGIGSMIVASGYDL

Assay [2] deals with T1, N-acetyl-L-glutamate kinase from Synechocystis sp. PCC 6803 with an N-terminal His6 tag (Synechocystis sp. PCC 6803). This is another data set of the same source.

Sequence of PII protein from the red alga Porphyra purpurea with a C-terminal Strep-tag II (P51254 whole entry): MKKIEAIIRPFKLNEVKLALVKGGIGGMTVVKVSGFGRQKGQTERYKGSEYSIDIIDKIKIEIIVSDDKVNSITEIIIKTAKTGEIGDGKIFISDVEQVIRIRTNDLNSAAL

Consider “PII protein from the red alga Porphyra purpurea with a C-terminal Strep-tag II (from UniProt P51254 1-112) (natural protein)”, for which the catalytic efficiency (Kcat/Km) of ScNAGK in the coupled NAGK activity assay, PpPII-complexed (free ScNAGK: 0.55 × 10^3 s^−1M^−1); NAG varied at 10 mM ATP in assay [1] worked out at 2360 s^−1M^−1. The relief of ScNAGK from feedback inhibition by arginine: rise of the IC50 for arginine on addition of PpPII (free ScNAGK: IC50 6.2 µM), coupled NAGK assay, without glutamine in assay [2] stood at 4 fold.
